Laboratory results as given in PMC3673982 (PLoS ONE, 2013).

Molecular target: the molecule itself
Experiment: cross-linking; 35 µM protein in 50 mM phosphate pH 7.4, 150 mM NaCl, preincubated at 37°C for 30 min; BS2G d0/d4 at 20-fold molar excess (50- and 100-fold also tested), 1 h on ice, quenched with Tris; read by 4-20% SDS-PAGE with Coomassie stain

B1: Human recombinant αA-G98R crystallin (natural protein, UniProt P02489 1-173, looked up)
chain: MDVTIQHPWFKRTLGPFYPSRLFDQFFGEGLFEYDLLPFLSSTISPYYRQSLFRTVLDSGISEVRSDRDKFVIFLDVKHFSPEDLTVKVQDDFVEIHRKHNERQDDHGYISREFHRRYRLPSNVDQSALSCSLSADGMLTFCGPKIQTGLDATHAERAIPVSREEKPTSAPSS
  binding result: binds
